Columns and labels:
Experiment in all cases: immunostaining of cells or tissue; cell-surface binding assay: HEK293T cells expressing WT or mutant HA-tagged Slitrks incubated with 10 μg/ml control IgC or Ig-PTPδ; immunofluorescence imaging of Ig-fusion proteins and HA; percentage of cells exhibiting binding
[1] = target: HA-tagged Slitrk1[N400I] (human) (UniProt Q96PX8)
[2] = target: HA-tagged Slitrk1[R584K] (human) (UniProt Q96PX8)
[3] = target: HA-tagged Slitrk1[S593G] (human) (UniProt Q96PX8)
[4] = target: HA-tagged Slitrk1[T418S] (human) (UniProt Q96PX8)
[5] = target: HA-tagged Slitrk2[L626F] (human) (UniProt Q9H156)
[6] = target: HA-tagged Slitrk2[R32L] (human) (UniProt Q9H156)
[7] = target: HA-tagged Slitrk2[S549F] (human) (UniProt Q9H156)
[8] = target: HA-tagged Slitrk2[S601P] (human) (UniProt Q9H156)
[9] = target: HA-tagged Slitrk2[V89M] (human) (UniProt Q9H156)
[10] = target: HA-tagged Slitrk4[I578V] (human) (UniProt Q8IW52)
[11] = target: HA-tagged Slitrk4[V206I] (human) (UniProt Q8IW52)
[12] = target: HA-tagged full-length Slitrk1 wild type (human) (UniProt Q96PX8)
[13] = target: HA-tagged full-length Slitrk2 wild type (human) (UniProt Q9H156)
[14] = target: HA-tagged full-length Slitrk4 wild type (human) (UniProt Q8IW52)

percentage of cells exhibiting the binding of Ig-PTPδ [1]: 32%
percentage of cells exhibiting the binding of Ig-PTPδ [2]: 62%
percentage of cells exhibiting the binding of Ig-PTPδ [3]: 68.7%
percentage of cells exhibiting the binding of Ig-PTPδ [4]: 41%
percentage of cells exhibiting the binding of Ig-PTPδ [5]: 76%
percentage of cells exhibiting the binding of Ig-PTPδ [6]: 82%
percentage of cells exhibiting the binding of Ig-PTPδ [7]: 68.8%
percentage of cells exhibiting the binding of Ig-PTPδ [8]: 80%
percentage of cells exhibiting the binding of Ig-PTPδ [9]: 81%
percentage of cells exhibiting the binding of Ig-PTPδ [10]: 22.2%
percentage of cells exhibiting the binding of Ig-PTPδ [11]: 24%
percentage of cells exhibiting the binding of Ig-PTPδ [12]: 66.7%
percentage of cells exhibiting the binding of Ig-PTPδ [13]: 71%
percentage of cells exhibiting the binding of Ig-PTPδ [14]: 81%
Substance: recombinant Ig-fusion protein of PTPδ (IgC-PTPδ) (from UniProt P23468 21-1912) (Fc fusion)

— paper PMC5071332
